Results from US20220411531A1 (SUMGEN MAB BEIJING BIOTECH, published 2022).
Substitutions are numbered along the chain they refer to.

T1: AXL-His (Sino Biological Inc., 6x His labels, molecular weight 47.5 Kda) (UniProt P30530-2 26-440, limits assumed)
T1 construct: Bought reagent; also called target antigen AXL-His; target antigen AXL; not shown: 6x His tag
T1 sequence (looked up): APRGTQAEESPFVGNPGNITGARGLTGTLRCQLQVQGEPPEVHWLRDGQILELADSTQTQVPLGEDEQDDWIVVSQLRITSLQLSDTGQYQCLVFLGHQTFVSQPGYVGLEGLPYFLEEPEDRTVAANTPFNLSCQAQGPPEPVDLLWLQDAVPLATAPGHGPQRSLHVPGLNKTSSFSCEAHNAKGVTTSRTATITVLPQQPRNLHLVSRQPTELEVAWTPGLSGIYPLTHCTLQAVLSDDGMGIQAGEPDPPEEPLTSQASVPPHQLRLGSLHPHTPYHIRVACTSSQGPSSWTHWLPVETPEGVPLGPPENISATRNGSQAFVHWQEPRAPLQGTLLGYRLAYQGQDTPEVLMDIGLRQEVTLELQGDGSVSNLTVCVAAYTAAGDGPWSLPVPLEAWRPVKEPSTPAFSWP

T2: MER-His (ACRO Biosystems) (UniProt Q12866 21-499, limits assumed)
T2 construct: Bought reagent; not shown: His tag
T2 sequence (looked up): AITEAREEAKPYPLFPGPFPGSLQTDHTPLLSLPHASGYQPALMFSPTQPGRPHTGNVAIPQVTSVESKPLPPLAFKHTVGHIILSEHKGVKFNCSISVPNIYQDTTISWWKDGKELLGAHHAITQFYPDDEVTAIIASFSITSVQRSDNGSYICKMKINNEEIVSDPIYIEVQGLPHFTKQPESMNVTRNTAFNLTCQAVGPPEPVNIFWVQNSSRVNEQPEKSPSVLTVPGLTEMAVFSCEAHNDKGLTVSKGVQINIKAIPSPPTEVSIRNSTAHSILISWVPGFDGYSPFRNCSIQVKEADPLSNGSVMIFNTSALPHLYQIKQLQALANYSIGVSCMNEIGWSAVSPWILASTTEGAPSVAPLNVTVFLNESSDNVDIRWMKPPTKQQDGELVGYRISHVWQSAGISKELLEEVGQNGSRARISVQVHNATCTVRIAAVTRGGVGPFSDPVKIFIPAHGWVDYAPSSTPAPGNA

B1: antibody 6G12M31 (antibody, V domains shown)
VH: QVQLVQSGPGLVKPSQSLSLTCSVTGFSISSGYYWNWIRQFPGQKLEWMGYRSYDGSNNYDPSLKNRISITRDTSKNQFFLKLNSVTSEDTATYYCARGWLLHYTMDYWGQGTTVTVSS
VL: DIVMTQSPSSVSVTLGQSASISCRSSRSLLHSNGFTYLYWYLQKPGQSPQLLIYQMSNLASGVPDRFSGSGSGTDFTLKISRVEAEDVGVYYCGQNLELPLTFGGGTKLEIK
B2: antibody 6G12M11 (antibody, human IgG1, kappa, V domains shown)
VH: B1 VH with S23A, D61N
VL: EIVMTQSPSSVSVTLGQSASISCRSSRSLLHSNGFTYLYWYLQKPGQSPQLLIYQMSNLASGVPDRFSGSGSGTDFTLKISRVEAEDVGVYYCGQNLELPLTFGGGTKLEIKR
B3: antibody 6G12M41 (antibody, V domains shown)
VH: B1 VH with D61G
VL: B1 VL
B4: antibody 6G12M21 (antibody, human IgG1, kappa, V domains shown)
VH: B1 VH with D61N
VL: B2 VL with E1D

What follows are binders tested against T1, AXL-His (Sino Biological Inc., 6x His …) (assay: SPR (Biacore T-200), antibody captured on chip, AXL-His as analyte).
Procedure: In this test, the affinity of AXL-His to each of the antibodies 6G12M11, 6G12M21, 6G12M31, and 6G12M41 was detected by the surface plasmon resonance technology. The test instrument used was BIACOR biomacromolecule interaction instrument (GE Healthcare, T-200). The antibodies 6G12M11, 6G12M21, 6G12M31, and 6G12M41 were immobilized on the surface of a chip by an antibody capturing method, and with all the concentrations set to 0.5 μg/mL, were injected for 60 seconds at a flow rate of 10 μL/min. The prepared AXL-His (Sino Biological Inc., 6× His labels, molecular weight: 47.5 Kda) as a mobile phase was let to flow through the surface of the chip under 5 concentration gradients (8, 4, 2, 1, 0.5 μg/mL) respectively for interaction determination. The AXL-His underwent association for 120 s and dissociation for 1800 s at the flow rate of 30 μL/min.

Kd [nM] | koff [s⁻¹] | kon [M⁻¹ s⁻¹] | Binder
29.2 | 0.00116 | 39700 | B1
11.7 | 0.00114 | 97400 | B2
28.7 | 0.00119 | 41500 | B3
10.2 | 0.00114 | 112000 | B4

These binders were tested against T2, MER-His (ACRO Biosystems) (assay: ELISA, MER-His coated at 1 µg/ml, anti-human IgG Fab-HRP, OD450).
Procedure: AXL, TRYO3, and MER are all members of the TYRO3 receptor tyrosine kinase subfamily. To verify the recognition specificity of the antibodies 6G12M11, 6G12M21, 6G12M31 and 6G12M41, the binding ability of these antibodies to other members of the AXL family is tested by the ELISA method.
(§1) TYRO3-Fc (ACRO Biosystems), MER-His (ACRO Biosystems), and AXL-His (Sino Biological Inc.) each were coated at 1 μg/ml on an ELISA strip, which was held at 4° C. overnight. After the ELISA strips were washed with PBST, 10% fetal bovine serum was added to the ELISA strip, which was blocked for 1 hour at 37° C. Antibodies […], 6G12M21, 6G12M31 and 6G12M41 were added to react at 37° C. for 1 hour. After the ELISA strips were washed with PBST, horseradish peroxidase-labeled goat anti-human IgG Fab secondary antibodies (Goat Anti-Human IgG (Fab′)₂ (HRP), Abcam) were added to react for 30 minutes at 37° C. The ELISA strips were washed 5 times with PBST, and patted and dried on absorbent paper to remove residual droplets as much as possible. 100 μl of TMB (eBioscience, #85-00-420) was added to each well, and the ELISA strips were held for 1.5 min at room temperature (20±5° C.) in the dark. 100 μl of 2N H₂SO₄ stop solution was added to each well to terminate substrate reaction. The OD value was read at 450 nm by a microplate reader to analyze the binding ability of antibodies to the proteins.

binding result | Binder
no binding (tested: about 1 µg/mL) | B1
no binding (tested: about 1 µg/mL) | B2
no binding (tested: about 1 µg/mL) | B3
no binding (tested: about 1 µg/mL) | B4

These binders were tested against T1, AXL-His (Sino Biological Inc., 6x His …) (assay: ELISA, AXL-His coated at 1 µg/ml, anti-human IgG Fab-HRP, OD450).
Procedure: as §1

EC50 (read off the curve) [µg/mL] | Binder
~0.03 | B1
~0.03 | B2
~0.03 | B3
~0.03 | B4
